The text below walks through data of patent publication US20040175720A1 (NEW YORK UNIVERSITY, published 2004).

Experiment [1] deals with T1, B42-NIF-1 (full-length), B42 activation domain fusion expressed from pJG4-5 in yeast (human, UniProt Q9H4Z2 1-1342).
T1 construct: also called NIF-1 expressed as a B42-fusion
T1 sequence: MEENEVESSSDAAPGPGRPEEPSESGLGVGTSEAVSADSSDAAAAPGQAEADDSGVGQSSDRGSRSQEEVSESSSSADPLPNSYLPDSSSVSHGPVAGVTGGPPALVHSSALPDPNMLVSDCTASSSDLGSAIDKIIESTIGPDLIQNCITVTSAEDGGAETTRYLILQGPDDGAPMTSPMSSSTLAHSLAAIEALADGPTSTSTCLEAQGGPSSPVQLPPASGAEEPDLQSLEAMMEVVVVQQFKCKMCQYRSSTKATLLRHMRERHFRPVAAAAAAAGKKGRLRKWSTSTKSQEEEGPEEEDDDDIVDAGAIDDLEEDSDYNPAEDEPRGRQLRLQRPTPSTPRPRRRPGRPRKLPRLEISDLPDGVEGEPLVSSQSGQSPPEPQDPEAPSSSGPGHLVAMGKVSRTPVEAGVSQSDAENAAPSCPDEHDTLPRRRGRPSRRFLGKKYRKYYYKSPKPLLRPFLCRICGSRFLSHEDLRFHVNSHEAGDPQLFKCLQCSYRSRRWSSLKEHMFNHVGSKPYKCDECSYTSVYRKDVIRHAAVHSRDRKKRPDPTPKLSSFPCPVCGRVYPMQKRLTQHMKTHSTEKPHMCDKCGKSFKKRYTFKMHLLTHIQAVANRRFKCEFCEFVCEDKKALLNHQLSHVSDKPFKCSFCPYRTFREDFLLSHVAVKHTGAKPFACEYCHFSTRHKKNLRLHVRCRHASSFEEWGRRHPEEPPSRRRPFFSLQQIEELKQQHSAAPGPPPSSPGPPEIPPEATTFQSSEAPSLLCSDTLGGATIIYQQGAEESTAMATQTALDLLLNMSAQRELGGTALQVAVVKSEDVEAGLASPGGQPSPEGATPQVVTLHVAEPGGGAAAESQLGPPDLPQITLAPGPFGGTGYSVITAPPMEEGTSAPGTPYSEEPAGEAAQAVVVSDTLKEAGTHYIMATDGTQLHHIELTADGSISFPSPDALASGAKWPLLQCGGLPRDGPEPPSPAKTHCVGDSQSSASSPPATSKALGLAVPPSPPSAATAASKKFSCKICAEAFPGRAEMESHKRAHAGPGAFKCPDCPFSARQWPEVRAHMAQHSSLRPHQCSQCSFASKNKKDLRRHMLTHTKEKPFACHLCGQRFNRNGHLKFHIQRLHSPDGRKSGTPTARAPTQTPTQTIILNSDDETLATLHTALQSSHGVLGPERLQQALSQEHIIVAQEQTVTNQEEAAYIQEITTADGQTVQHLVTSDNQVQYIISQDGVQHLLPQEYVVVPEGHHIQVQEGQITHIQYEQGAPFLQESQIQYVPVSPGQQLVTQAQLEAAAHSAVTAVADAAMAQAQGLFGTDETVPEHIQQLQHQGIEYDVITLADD
The experiment can be described thus: yeast two-hybrid, B42-NIF-1 (full-length) against LexA-LBD, β-galactosidase. As for the experimental part: To examine for this possibility, the interaction of B42-NIF-1 (full-length), conditionally expressed from pJG4-5, was studied with LexA fusions of nuclear receptor LBDs (cTRα, ERa, RXRα, GR, RARα, and PPARα) in yeast, as shown in FIG. 7. In addition, a LexA-fusion of full-length cTRα was also tested against B42-NIF-1 (full-length) and gave similar results as with the cTRα LBD. […] To document that the LexA-LBD fusions were expressed and responded to ligand in yeast, similar studies were carried out with B42-NRC.

For experiment [2], the target named is Human NRC expressed from pEX-NRC in HeLa cells (human, UniProt Q14686 1-2063). The experiment can be described thus: cell-based or functional assay.
Chain of Human NRC expressed from pEX-NRC in HeLa cells (Q14686 whole entry): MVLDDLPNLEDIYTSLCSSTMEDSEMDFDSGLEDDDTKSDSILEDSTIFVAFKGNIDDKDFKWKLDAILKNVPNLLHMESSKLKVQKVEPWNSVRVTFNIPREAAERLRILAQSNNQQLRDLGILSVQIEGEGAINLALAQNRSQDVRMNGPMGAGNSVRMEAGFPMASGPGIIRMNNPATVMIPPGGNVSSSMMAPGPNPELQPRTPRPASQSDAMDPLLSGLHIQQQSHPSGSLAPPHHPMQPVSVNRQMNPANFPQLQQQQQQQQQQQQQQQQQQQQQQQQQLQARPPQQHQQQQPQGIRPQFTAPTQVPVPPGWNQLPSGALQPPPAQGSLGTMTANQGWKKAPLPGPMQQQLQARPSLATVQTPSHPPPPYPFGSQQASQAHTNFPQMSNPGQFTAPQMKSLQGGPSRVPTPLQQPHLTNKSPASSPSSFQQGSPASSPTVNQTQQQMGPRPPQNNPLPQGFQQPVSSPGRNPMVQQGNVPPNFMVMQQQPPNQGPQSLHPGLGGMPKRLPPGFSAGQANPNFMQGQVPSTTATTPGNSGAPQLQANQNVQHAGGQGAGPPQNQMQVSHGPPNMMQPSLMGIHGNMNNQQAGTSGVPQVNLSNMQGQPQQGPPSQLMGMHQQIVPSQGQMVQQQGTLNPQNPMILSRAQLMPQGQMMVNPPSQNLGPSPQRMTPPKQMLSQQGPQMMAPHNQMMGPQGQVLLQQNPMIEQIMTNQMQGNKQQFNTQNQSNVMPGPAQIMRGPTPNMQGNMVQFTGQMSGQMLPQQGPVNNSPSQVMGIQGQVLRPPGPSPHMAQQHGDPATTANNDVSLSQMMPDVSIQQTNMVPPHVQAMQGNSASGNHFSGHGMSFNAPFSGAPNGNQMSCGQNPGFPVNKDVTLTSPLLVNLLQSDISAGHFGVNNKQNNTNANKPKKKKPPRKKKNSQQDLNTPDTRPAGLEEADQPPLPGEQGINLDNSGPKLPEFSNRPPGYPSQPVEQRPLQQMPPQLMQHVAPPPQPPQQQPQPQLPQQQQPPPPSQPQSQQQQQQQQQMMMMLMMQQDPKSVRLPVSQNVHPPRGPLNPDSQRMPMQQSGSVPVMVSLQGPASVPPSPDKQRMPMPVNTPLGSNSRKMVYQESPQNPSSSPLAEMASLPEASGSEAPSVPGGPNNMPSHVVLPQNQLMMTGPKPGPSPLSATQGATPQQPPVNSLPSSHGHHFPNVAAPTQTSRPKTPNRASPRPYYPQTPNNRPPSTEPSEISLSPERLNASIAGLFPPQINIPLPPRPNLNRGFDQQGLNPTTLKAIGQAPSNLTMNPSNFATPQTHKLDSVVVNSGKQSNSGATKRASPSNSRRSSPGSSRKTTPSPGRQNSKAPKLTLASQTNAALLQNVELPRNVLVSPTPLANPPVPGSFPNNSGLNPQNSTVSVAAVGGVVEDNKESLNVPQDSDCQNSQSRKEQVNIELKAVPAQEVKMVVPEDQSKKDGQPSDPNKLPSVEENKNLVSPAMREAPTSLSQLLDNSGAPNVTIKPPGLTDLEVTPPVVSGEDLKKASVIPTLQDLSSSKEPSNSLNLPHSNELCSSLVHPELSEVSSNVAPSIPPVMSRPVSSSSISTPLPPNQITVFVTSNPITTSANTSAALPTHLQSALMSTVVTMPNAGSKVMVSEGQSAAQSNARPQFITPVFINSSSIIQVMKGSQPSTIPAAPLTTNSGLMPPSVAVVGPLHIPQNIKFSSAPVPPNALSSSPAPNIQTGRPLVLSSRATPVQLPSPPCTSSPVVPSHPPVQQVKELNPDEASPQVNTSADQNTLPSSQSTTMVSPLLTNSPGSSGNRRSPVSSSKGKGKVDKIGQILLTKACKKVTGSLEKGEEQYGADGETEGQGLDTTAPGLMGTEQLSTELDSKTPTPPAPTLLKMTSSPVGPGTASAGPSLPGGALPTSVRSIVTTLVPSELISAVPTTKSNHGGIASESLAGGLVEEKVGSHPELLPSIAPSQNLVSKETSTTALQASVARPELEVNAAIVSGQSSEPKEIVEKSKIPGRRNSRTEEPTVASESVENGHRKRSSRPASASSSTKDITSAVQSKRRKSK

B1: LexA-hPPARα LBD (LexA fusion of the ligand binding domain of hPPARα) (receptor, UniProt P0A7C2 1-202, looked up)
chain: MKALTARQQEVFDLIRDHISQTGMPPTRAEIAQRLGFRSPNAAEEHLKALARKGVIEIVSGASRGIRLLQEEEEGLPLVGRVAAGEPLLAQQHIEGHYQVDPSLFKPNADFLLRVSGMSMKDIGIMDGDLLAVHKTQDVRNGQVVVARIDDEVTVKRLKKQGNKVELLPENSEFKPIVVDLRQQSFTIEGLAVGVIRNGDWLSHNAIRFGRMPRSEKAKLKAEILTCEHDIEDSETADLKSLAKRIYEAYLKNFNMNKVKARVILSGKASNNPPFVIHDMETLCMAEKTLVAKLVANGIQNKEAEVRIFHCCQCTSVETVTELTEFAKAIPGFANLDLNDQVTLLKYGVYEAIFAMLSSVMNKDGMLVAYGNGFITREFLKSLRKPFCDIMEPKFDFAMKFNALELDDSDISLFVAAIICCGDRPGLLNVGHIEKMQEGIVHVLRLHLQSNHPDDIFLFPKLLQKMADLRQLVTEHAQLVQIIKKTESDAALHPLLQEIYRDMY
notes: domain: LexA DBD;domain: LBD
With B1, in experiment [1], the binding result was “no binding”.

B2: LexA-cTRα LBD (LexA fusion of the ligand binding domain of cTRα) (receptor, UniProt P0A7C2 1-202, looked up)
chain: MKALTARQQEVFDLIRDHISQTGMPPTRAEIAQRLGFRSPNAAEEHLKALARKGVIEIVSGASRGIRLLQEEEEGLPLVGRVAAGEPLLAQQHIEGHYQVDPSLFKPNADFLLRVSGMSMKDIGIMDGDLLAVHKTQDVRNGQVVVARIDDEVTVKRLKKQGNKVELLPENSEFKPIVVDLRQQSFTIEGLAVGVIRNGDWLMDLVLDDSKRVAKRKLIEENRERRRKEEMIKSLQHRPSPSAEEWELIHVVTEAHRSTNAQGSHWKQKRKFLPEDIGQSPMASMPDGDKVDLEAFSEFTKIITPAITRVVDFAKKLPMFSELPCEDQIILLKGCCMEIMSLRAAVRYDPESETLTLSGEMAVKREQLKNGGLGVVSDAIFDLGKSLSAFNLDDTEVALLQAVLLMSSDRTGLICVDKIEKCQETYLLAFEHYINYRKHNIPHFWPKLLMKVTDLRMIGACHASRFLHMKVECPTELFPPLFLEVFEDQEV
notes: domain: LexA DBD;domain: LBD; also called cTRa
As to B2, the binding result in experiment [1] is “no binding”.

B3: LexA-hGR LBD (LexA fusion of the ligand binding domain of hGR) (receptor, UniProt P0A7C2 1-202, looked up)
chain: MKALTARQQEVFDLIRDHISQTGMPPTRAEIAQRLGFRSPNAAEEHLKALARKGVIEIVSGASRGIRLLQEEEEGLPLVGRVAAGEPLLAQQHIEGHYQVDPSLFKPNADFLLRVSGMSMKDIGIMDGDLLAVHKTQDVRNGQVVVARIDDEVTVKRLKKQGNKVELLPENSEFKPIVVDLRQQSFTIEGLAVGVIRNGDWLGMNLEARKTKKKIKGIQQATTGVSQETSENPGNKTIVPATLPQLTPTLVSLLEVIEPEVLYAGYDSSVPDSTWRIMTTLNMLGGRQVIAAVKWAKAIPGFRNLHLDDQMTLLQYSWMFLMAFALGWRSYRQSSANLLCFAPDLIINEQRMTLPCMYDQCKHMLYVSSELHRLQVSYEEYLCMKTLLLLSSVPKDGLKSQELFDEIRMTYIKELGKAIVKREGNSSQNWQRFYQLTKLLDSMHEVVENLLNYCFQTFLDKTMSIEFPEMLAEIITNQIPKYSNGNIKKLLFHQK
notes: domain: LexA DBD;domain: LBD
B3: the binding result in experiment [1] is recorded as “no binding”.

B4: LexA-hRXRα LBD (LexA fusion of the ligand binding domain of hRXRα) (receptor, UniProt P0A7C2 1-202, looked up)
chain: MKALTARQQEVFDLIRDHISQTGMPPTRAEIAQRLGFRSPNAAEEHLKALARKGVIEIVSGASRGIRLLQEEEEGLPLVGRVAAGEPLLAQQHIEGHYQVDPSLFKPNADFLLRVSGMSMKDIGIMDGDLLAVHKTQDVRNGQVVVARIDDEVTVKRLKKQGNKVELLPENSEFKPIVVDLRQQSFTIEGLAVGVIRNGDWLMGMKREAVQEERQRGKDRNENEVESTSSANEDMPVERILEAELAVEPKTETYVEANMGLNPSSPNDPVTNICQAADKQLFTLVEWAKRIPHFSELPLDDQVILLRAGWNELLIASFSHRSIAVKDGILLATGLHVHRNSAHSAGVGAIFDRVLTELVSKMRDMQMDKTELGCLRAIVLFNPDSKGLSNPAEVEALREKVYASLEAYCKHKYPEQPGRFAKLLLRLPALRSIGLKCLEHLFFFKLIGDTPIDTFLMEMLEAPHQMT
notes: domain: LexA DBD;domain: LBD
B4: the binding result in experiment [1] is “no binding”.

B5: NIF-1 (NRC Interacting Factor-1), full-length human, untagged (other)
chain: MEENEVESSSDAAPGPGRPEEPSESGLGVGTSEAVSADSSDAAAAPGQAEADDSGVGQSSDRGSRSQEEVSESSSSADPLPNSYLPDSSSVSHGPVAGVTGGPPALVHSSALPDPNMLVSDCTASSSDLGSAIDKIIESTIGPDLIQNCITVTSAEDGGAETTRYLILQGPDDGAPMTSPMSSSTLAHSLAAIEALADGPTSTSTCLEAQGGPSSPVQLPPASGAEEPDLQSLEAMMEVVVVQQFKCKMCQYRSSTKATLLRHMRERHFRPVAAAAAAAGKKGRLRKWSTSTKSQEEEGPEEEDDDDIVDAGAIDDLEEDSDYNPAEDEPRGRQLRLQRPTPSTPRPRRRPGRPRKLPRLEISDLPDGVEGEPLVSSQSGQSPPEPQDPEAPSSSGPGHLVAMGKVSRTPVEAGVSQSDAENAAPSCPDEHDTLPRRRGRPSRRFLGKKYRKYYYKSPKPLLRPFLCRICGSRFLSHEDLRFHVNSHEAGDPQLFKCLQCSYRSRRWSSLKEHMFNHVGSKPYKCDECSYTSVYRKDVIRHAAVHSRDRKKRPDPTPKLSSFPCPVCGRVYPMQKRLTQHMKTHSTEKPHMCDKCGKSFKKRYTFKMHLLTHIQAVANRRFKCEFCEFVCEDKKALLNHQLSHVSDKPFKCSFCPYRTFREDFLLSHVAVKHTGAKPFACEYCHFSTRHKKNLRLHVRCRHASSFEEWGRRHPEEPPSRRRPFFSLQQIEELKQQHSAAPGPPPSSPGPPEIPPEATTFQSSEAPSLLCSDTLGGATIIYQQGAEESTAMATQTALDLLLNMSAQRELGGTALQVAVVKSEDVEAGLASPGGQPSPEGATPQVVTLHVAEPGGGAAAESQLGPPDLPQITLAPGPFGGTGYSVITAPPMEEGTSAPGTPYSEEPAGEAAQAVVVSDTLKEAGTHYIMATDGTQLHHIELTADGSISFPSPDALASGAKWPLLQCGGLPRDGPEPPSPAKTHCVGDSQSSASSPPATSKALGLAVPPSPPSAATAASKKFSCKICAEAFPGRAEMESHKRAHAGPGAFKCPDCPFSARQWPEVRAHMAQHSSLRPHQCSQCSFASKNKKDLRRHMLTHTKEKPFACHLCGQRFNRNGHLKFHIQRLHSPDGRKSGTPTARAPTQTPTQTIILNSDDETLATLHTALQSSHGVLGPERLQQALSQEHIIVAQEQTVTNQEEAAYIQEITTADGQTVQHLVTSDNQVQYIISQDGVQHLLPQEYVVVPEGHHIQVQEGQITHIQYEQGAPFLQESQIQYVPVSPGQQLVTQAQLEAAAHSAVTAVADAAMAQAQGLFGTDETVPEHIQQLQHQGIEYDVITLADD
modifications: ^35S-L-methionine label in the in vitro binding assay
Regarding B5, the “activity of the -73 collagenase-CAT reporter gene in HeLa cells (fold increase)” value in experiment [2] is 12 fold.

B6: LexA-human ERα-LBD (LexA fusion of the ligand binding domain of hERα) (receptor, UniProt P0A7C2 1-202, looked up)
chain: MKALTARQQEVFDLIRDHISQTGMPPTRAEIAQRLGFRSPNAAEEHLKALARKGVIEIVSGASRGIRLLQEEEEGLPLVGRVAAGEPLLAQQHIEGHYQVDPSLFKPNADFLLRVSGMSMKDIGIMDGDLLAVHKTQDVRNGQVVVARIDDEVTVKRLKKQGNKVELLPENSEFKPIVVDLRQQSFTIEGLAVGVIRNGDWLSAGDMRAANLWPSPLMIKRSKKNSLALSLTADQMVSALLDAEPPILYSEYDPTRPFSEASMMGLLTNLADRELVHMINWAKRVPGFVDLTLHDQVHLLECAWLEILMIGLVWRSMEHPGKLLFAPNLLLDRNQGKCVEGMVEIFDMLLATSSRFRMMNLQGEEFVCLKSIILLNSGVYTFLSSTLKSLEEKDHIHRVLDKITDTLIHLMAKAGLTLQQQHQRLAQLLLILSHIRHMSNKGMEHLYSMKCKNVVPLYDLLLEMLDAHRLHAPTSRGGASVEETDQSHLATAGSTSSHSLQKYYITGEAEGFPATV
notes: domain: LexA DBD;domain: LBD; also called hERa; ERa
B6: in experiment [1], the binding result is on record as “no binding”.

B7: LexA-hRARα LBD (LexA fusion of the ligand binding domain of hRARα) (receptor, UniProt P0A7C2 1-202, looked up)
chain: MKALTARQQEVFDLIRDHISQTGMPPTRAEIAQRLGFRSPNAAEEHLKALARKGVIEIVSGASRGIRLLQEEEEGLPLVGRVAAGEPLLAQQHIEGHYQVDPSLFKPNADFLLRVSGMSMKDIGIMDGDLLAVHKTQDVRNGQVVVARIDDEVTVKRLKKQGNKVELLPENSEFKPIVVDLRQQSFTIEGLAVGVIRNGDWLSKESVRNDRNKKKKEVPKPECSESYTLTPEVGELIEKVRKAHQETFPALCQLGKYTTNNSSEQRVSLDIDLWDKFSELSTKCIIKTVEFAKQLPGFTTLTIADQITLLKAACLDILILRICTRYTPEQDTMTFSDGLTLNRTQMHNAGFGPLTDLVFAFANQLLPLEMDDAETGLLSAICLICGDRQDLEQPDRVDMLQEPLLEALKVYVRKRRPSRPHMFPKMLMKITDLRSISAKGAERVITLKMEIPGSMPPLIQEMLENSEGLDTLSGQPGGGGRDGGGLAPPPGSCSPSLSPSSNRSSPATHSP
notes: domain: LexA DBD;domain: LBD
For the molecule B7, in experiment [1], the binding result is on record as “no binding”.
